Reference: patent US5801017A, “Production of recombinant factor Xa inhibitor of leech Hirudo medicinalis” (Bio-Technology General Corp., priority 1994, dated 1998)
Where “and” joins values, the source holds several entries; their conditions need not be identical. Equal entries are not always repeated.

Columns and labels:
[1] = molecular target: FXaI prepeptide expressed by plasmid pFSHI-6 (Met-His-His-His-His-His-His-Gly-Thr-Asp-Asp-Asp-Asp-Lys-FXaI) (Hirudo medicinalis)
human plasma = test: APTT coagulation assay in human plasma; format: biochemical
Protocol: (§1) APTT (activated partial thromboplastin time) of fresh murine or human plasma was monitored by visual assessment of its clotting in the absence or presence of various amounts of FXaI. Briefly, FXaI (up to 50 μl), 100 μl of plasma and 100 μl of partial thromboplastin (Actin-FS) were incubated for 3 minutes at 37° C. The coagulation cascade was activated by the addition of 100 μl of 20 mM CaCl2. The FXaI concentration in the abscissa is based on the assumption that 1 mu=1 pmol. Murine plasma--.circle-solid.; human plasma--.diamond-solid.. The arrows indicate the FXaI concentration at which doubling of the APTT is obtained.
(§2) The inhibitory activity of FXaI was also assayed as the increase of the activated partial thromboplastin time (APTT) essentially as described in Spaethe, Haemostasis, AHS/Deutschland GmbH, Munich (1984), using as reagent Actin FS (Dade), which contains ellagic acid for activation of Factors XII and Factor XI, and soy bean phospholipid. Under these conditions, and in the presence of 20 mM CaCl2, only the intrinsic pathway of coagulation is activated.
(§3) Isoform A (the major fraction of naturally occurring FXaI isolated from DLS) was used in these experiments. […] The protein concentration of this batch was assayed by SDS-Bradford (Macart and Gerbaut, Clin. Chim. Acta 122:93-101 (1982)) and was determined to be ~20 μg/ml.

FXa = test: chromogenic FXa inhibitory activity assay (hydrolysis of CHG); format: biochemical, bovine; settings: for Inhibitory activity (specific activity), FXa: 1 mu = amount causing 50% inhibition with 2 nM FXa
Protocol: Increasing amounts of FXaI purified on Mono-Q were preincubated for 3 minutes with 2 pmol bovine FXa in a 1 ml cuvette. The initial rate of hydrolysis of the substrate CHG was monitored at 405 nm (see Example 2). Fraction 47 was the peak fraction of a particular purification experiment.
The assay of FXa inhibitory activity is based on the inhibition of the FXa-mediated hydrolysis of the chromogenic substrate methoxycarbonyl-D-cyclohexylglycyl-glycyl-arginyl p-nitroanilide (CHG) as described below.
The appropriate substrate concentration was determined from the molar absorbance which is 8210 at 342 nm. The reaction mixture contains 50 mM Tris-HCl pH 8.2, 5 mM CaCl2, 200 mM NaCl, 0.1% PEG, 40 μM substrate, and approximately 2 nM FXa. The FXa concentration is determined more precisely from the initial (first 20 seconds) rate of CHG hydrolysis at 40 μM in the absence of inhibitor based on the kinetic parameters mentioned above.
Inhibition of the increase in absorbance may be observed in the presence of the FXa inhibitory activity of an FXa inhibitor such as FXaI of the present invention. The inhibitor concentration is the difference in absorbance between the reaction in the presence and absence of inhibitor multiplied by the FXa concentration.
This determination assumes the formation of a 1:1 enzyme-inhibitor complex, and further assumes that the dissociation constant is low enough (i.e., tight binding) to enable essentially total binding of the inhibitor (FXaI) to the enzyme (FXa). In fact, the saturation shape of the dose-response curve (FIG. 3) provides evidence that a finite and not negligible dissociation of the inhibitor-enzyme complex occurs under these conditions. The dose response curve is represented by the degree of inhibition versus FXaI concentration and is further described in Section 5.2.
The degree of dissociation of the FXa-FXaI complex is characterized by the inhibition constant (Ki) and may be determined from the inhibited velocity of the hydrolysis of the chromogenic substrate CHG. […] The Ki of naturally occurring FXa in the chromogenic assay is about 9 nM.
The determination of inhibitor concentration determined by the above method is therefore probably underestimated. It was found useful to define the FXaI concentration as the protein concentration (IC50) required to obtain a constant degree of inhibition, usually 50% and to define the amount causing 50% inhibition under these reaction conditions to be 1 milliunit (mu) or 1 pmol. IC50 is generally higher than Ki, and depending on the type of inhibition, can be shown to depend variously on substrate concentration, Ki, Km and other factors (Segel, I. (1974) "Enzyme Kinetics", Wiley Interscience). In fact, the range of values of IC50 was determined to be about 10-20 nM.
The FXaI activity assay used to determine concentration during purification and characterization was performed in an Elisa Titertek Twin Reader, Type 380 (EF LAB). The final activity measurement of purified protein was also performed in a Phillips (model PU 8720) UV/Vis scanning spectrophotometer.

murine plasma = test: APTT coagulation assay in murine plasma; format: biochemical
Protocol: as §1, §2, §3

thrombin [2] = test: thrombin inhibition assay according to Lottenberg et al.; format: biochemical
Protocol: The refolded and dialyzed protein so obtained was assayed for FXa inhibitory activity by the biochemical chromogenic assay described in Example 2. The results are shown in Table 6 as milliunits per mg protein (mu/mg). The amount of protein causing 50% inhibition in an assay mixture containing 2 nM FXa is defined as 1 mu. In addition, the refolded protein was also tested for its inhibitory effect on thrombin, another proteolytic enzyme of the coagulation cascade, which was assayed according to Lottenberg et al. Methods Enzymol. 80:341-361 (1981).

[3] = molecular target: bovine Factor Xa (bovine) (UniProt P00743)
[4] = molecular target: bovine Factor Xa (bovine) (UniProt P00743); remark: listed apart in the source
thrombin [5] = molecular target: thrombin
Factor Xa [6] = test: prothrombinase complex assay (FXa 250 pM, prothrombin 2.67 µM, FVa, cephalin, Ca++)
[7] = molecular target: bovine Factor Xa (bovine) (UniProt P00743); remark: listed apart in the source
Factor Xa [8] = molecular target: Factor Xa
Factor Xa [9] = test: prothrombinase complex assay, modified protocol (50 pM FXa, 1.35 µM prothrombin)
[10] = molecular target: bovine Factor Xa (bovine) (UniProt P00743); remark: listed apart in the source
Target sequence in this assay (P00743 41-492): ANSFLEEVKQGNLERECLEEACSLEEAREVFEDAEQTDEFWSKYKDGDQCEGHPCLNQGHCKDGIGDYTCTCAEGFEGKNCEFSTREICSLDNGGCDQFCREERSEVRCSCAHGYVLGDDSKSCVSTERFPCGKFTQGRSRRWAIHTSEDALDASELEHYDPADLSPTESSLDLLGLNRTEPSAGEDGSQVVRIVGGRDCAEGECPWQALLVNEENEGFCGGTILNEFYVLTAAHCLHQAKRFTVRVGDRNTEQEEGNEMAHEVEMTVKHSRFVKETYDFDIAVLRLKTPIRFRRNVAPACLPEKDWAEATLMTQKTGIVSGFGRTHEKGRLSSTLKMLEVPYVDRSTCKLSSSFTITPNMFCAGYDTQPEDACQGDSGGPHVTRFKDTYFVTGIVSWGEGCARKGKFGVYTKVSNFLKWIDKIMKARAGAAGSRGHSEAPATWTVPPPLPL

Factor Xa [11] = molecular target: Factor Xa; remark: listed apart in the source
[12] = molecular target: bovine Factor Xa (bovine) (UniProt P00743); remark: listed apart in the source
Target sequence in this assay (P00743 41-492): as above

[13] = molecular target: bovine Factor Xa (bovine) (UniProt P00743); remark: listed apart in the source
Target sequence in this assay (P00743 41-492): as above

[14] = molecular target: bovine Factor Xa (bovine) (UniProt P00743); remark: listed apart in the source
Target sequence in this assay (P00743 41-492): as above

Enterokinase (Biozyme, Great Britain) (enzyme)
cleavage efficiency by SDS-PAGE analysis [1]: 95%

Isoform A: major fraction of naturally occurring FXaI from DLS, eluted by low salt gradient, 13-14 kD
concentration causing doubling of the APTT (human plasma): 10 mu/ml
concentration causing doubling of the APTT, based on protein concentration (human plasma): 87 nM
activity in the chromogenic assay, equivalent (FXa; assuming tight binding between FXa and inhibitor): 164 pmol/mL
activity in the chromogenic assay (FXa; batch of ~20 μg/ml protein): 164 mu/ml
concentration causing doubling of the APTT (murine plasma): 3.5 mu/ml
concentration causing doubling of the APTT, based on protein concentration (murine plasma): 30 nM

Met-His-His-His-His-His-His-Gly-Thr-Asp-Asp-Asp-Asp-Lys-FXaI [FXaI prepeptide]
FXa inhibitory specific activity (FXa; prior to cleavage with enterokinase): 1000-1200 mu/mg protein

Refolded 11"f": refolded fusion protein: 63 N-terminal amino acids of modified Cu/Zn-SOD, met-phe-val linker, FXaI tyr26 to gly110; plasmid pDeo-S-XaI-11"f"
Inhibitory activity (specific activity), Thrombin (thrombin [2]): < 1 mu/mg
Inhibitory activity (specific activity), FXa (FXa; listed as Refolded 11"f" Batch 1): 150 mu/mg
Inhibitory activity (specific activity), FXa (FXa; listed as Refolded 11"f" Batch 2): 95 mu/mg
Inhibitory activity (specific activity), FXa (FXa; listed as Refolded 11"f" Batch 3): 89 mu/mg
specificity for FXa versus thrombin (FXa; ratio of specific activities): greater than 80 fold

isoform A of naturally occurring FXaI isolated from DLS
activity in the chromogenic assay [3]: 164 mu/ml

isoform B of naturally occurring FXaI isolated from DLS
Specific activity, mu/mg (inhibition of FXa, chromogenic assay) [4]: 507 mu/mg
Specific activity, mu/mg (inhibition of thrombin) (thrombin [5]): < 1 mu/mg

naturally occurring FXaI (Factor Xa inhibitor) purified from dilute leech saliva (DLS) of Hirudo medicinalis
Ki (Factor Xa [6]): 0.072 nM
IC50 in the chromogenic FXa assay [7]: 10 to 20 nM
IC50 in the prothrombinase complex assay (generation of thrombin from prothrombin) (Factor Xa [8]): 190 pM
Ki (Factor Xa [9]): 0.12 nM

B1: FXaI prepeptide expressed by plasmid pFSHI-6 (Met-His-His-His-His-His-His-Gly-Thr-Asp-Asp-Asp-Asp-Lys-FXaI) (protein)
chain: MHHHHHHGTDDDDKYEVIYVDDPCEDSDCEDGNKCSPVTNECDCSPVRCRLHCNFYVKDSNGCETCACEPKCKHKNCPTGHHCNKLTNKCELKKQRRMG
FXa inhibitory specific activity in the chromogenic assay, prior to cleavage (mu/mg protein) [10]: 1000 and 1200

B2: mature recombinant FXaI obtained by enterokinase cleavage of the pFSHI-6 prepeptide (protein)
chain: YEVIYVDDPCEDSDCEDGNKCSPVTNECDCSPVRCRLHCNFYVKDSNGCETCACEPKCKHKNCPTGHHCNKLTNKCELKKQRRMG
FXa inhibitory specific activity in the chromogenic assay, after removal of the extension peptide by chromatography [10]: 8000 mU/mg
FXa inhibitory specific activity in the chromogenic assay, following cleavage with enterokinase (mu/mg protein) [10]: 4000 and 4500
concentration causing doubling of the APTT (Factor Xa [11]): 12.2 µg/mL

B3: cleaved, refolded product: mature FXaI from the FXaI dimer (plasmid pMLK-XaI-D-11"m") cleaved with CNBr, then refolded (protein)
chain: YEVIYVDDPCEDSDCEDGNKCSPVTNECDCSPVRCRLHCNFYVKDSNGCETCACEPKCKHKNCPTGHHCNKLTNKCELKKQRRMG
specific FXa inhibitory activity (FXa; Route I: dimer cleaved with CNBr, then refolded): 1900 mU/mg

B4: mature recombinant FXaI obtained by CNBr cleavage of the FXaI dimer (protein)
chain: YEVIYVDDPCEDSDCEDGNKCSPVTNECDCSPVRCRLHCNFYVKDSNGCETCACEPKCKHKNCPTGHHCNKLTNKCELKKQRRMG
specific activity in the chromogenic assay (route II: refolded, then cleaved with CNBr), A [12]: 2470 mu/mg
specific FXa inhibitory activity in the chromogenic assay (route I: cleaved, then refolded) [13]: 1900 mU/mg
specific activity in the chromogenic assay (route II: refolded, then cleaved with CNBr), B [14]: 4700 mu/mg
